This note sets out measurements from patent US6528098B2, “Preparation of a therapeutic composition” (Advanced Viral Research Corp., priority 1996, dated 2003).

One data set deals with T1, chymotrypsin (Bos taurus, UniProt P00766).
T1 construct: purchased Boehringer Mannheim, USA
Nature of the data set: Treatment of Product R with chymotrypsin, SDS-PAGE on a 16% gel. Type of data set: physicochemical. The note with it: 250 μg/ml chymotrypsin, 25° C., 19 hours. Further details: key to Sensitivity of the Peptide Components of Product R (SDS-PAGE): Chymotrypsin (250 μg/ml): “−” represents no substantial alteration of the stainable bands; “+” represents substantial alteration of the stainable bands. Here is the method:
(§1) The biochemical properties of the peptides: Some biochemical properties of the silverstainable peptide components of Product R are analyzed using various catabolic enzymes, as described below:
The treatment with chymotrypsin (Boehringer Mannheim, USA):Chymotrypsin is a serine protease that specifically hydrolyses the peptide bonds of tyrosine, phenylalanine and tryptophan at C-terminals. It also cleaves peptide bonds of leucine, methionine, alanine, aspartic acid and glutamic acid at C-terminals at relatively lower rates. A Product R sample is incubated in a reaction buffer containing 100 mM Tris-HCl, pH 7.6, 10 mM CaCl2 and 250 μg/ml of sequencing grade chymotrypsin at 25° C. for 19 hours and then subject to SDS-PAGE on a 16% gel.
(§2) A summary of the above described treatments by catabolic enzymes is provided in the following TABLE III, and the results of the treatment are shown in FIG. 5, wherein “−” represents no substantial alteration of the stainable bands and “+” represents substantial alteration of the stainable bands.

Data set [1] concerns Calf thymus alkaline phosphatase (CIAP). Nature of the data set: Treatment of Product R with alkaline phosphatase, SDS-PAGE on a 16% gel. It counts as physicochemical. Further details: key to Sensitivity of the Peptide Components of Product R (SDS-PAGE): Alkaline Phosphatase (200 units/ml): “−” represents no substantial alteration of the stainable bands; “+” represents substantial alteration of the stainable bands. Conditions: 200 units/ml CIAP, 37° C., about one hour. Here is the method: as §1
The treatment with alkaline phosphatase (Life Technologies, USA): Calf thymus alkaline phosphatase (CIAP) is a phosphomonoesterase that hydrolyses 5′-phosphate groups from DNA, RNA and nucleotides. A Product R sample is incubated in a reaction buffer provided by the manufacturer of the enzyme and 200 units/ml CIAP at 37° C. for about one hour and subjected to SDS-PAGE on a 16% gel.
as §2

No end group written: not given here.

With “GEIPDAGGRIVDYYVGFSDSV (not fully specified (residue 18)) [Peptide-B, 21-amino acid peptide linked at serine 18 through a diphosphodiester group to the 3′-end of an adenylyl (3′-5′) adenosine moiety]”, in the data set with chymotrypsin, the “Sensitivity of the Peptide Components of Product R (SDS-PAGE): Chymotrypsin (250 μg/ml)” value is recorded as “−” and the “change of band intensity after chymotrypsin treatment” value is on record as “no apparent effect”. In data set [1], the “Sensitivity of the Peptide Components of Product R (SDS-PAGE): Alkaline Phosphatase (200 units/ml)” value is “−” and the “change of band intensity / hydrolysis by alkaline phosphatase” value is “resistance”.

In the case of “KVLPVPQKAVPYPQRDMPIQAFLLYQEPVLG [Peptide-A, 31-amino-acid long peptide derived from bovine beta-casein, constituent of Product R]”, in the data set with chymotrypsin, the “Sensitivity of the Peptide Components of Product R (SDS-PAGE): Chymotrypsin (250 μg/ml)” value was “+” and the “change of band intensity after chymotrypsin treatment” value was “significantly reduces the intensity”. In addition, in data set [1], the “Sensitivity of the Peptide Components of Product R (SDS-PAGE): Alkaline Phosphatase (200 units/ml)” value is “−”.
